Test results taken from patent publication US20060263802A1 (CRUCELL HOLLAND B V, published 2006).

Legend:
Assay in all cases: PEPSCAN ELISA, looped 15-mer, 10 ug/ml
[1] = target: looped peptide … (rabies virus strain ERA)
[2] = target: looped peptide … (rabies virus strain ERA); remark: listed apart in the source
[3] = target: looped peptide … (rabies virus strain ERA); remark: listed apart in the source
[4] = target: looped peptide … (rabies virus strain ERA); remark: listed apart in the source
[5] = target: looped peptide … (rabies virus strain ERA); remark: listed apart in the source
[6] = target: looped peptide … (rabies virus strain ERA); remark: listed apart in the source
[7] = target: looped peptide … (rabies virus strain ERA); remark: listed apart in the source
[8] = target: looped peptide … (rabies virus strain ERA); remark: listed apart in the source
[9] = target: looped peptide … (rabies virus strain ERA); remark: listed apart in the source
[10] = target: looped peptide … (rabies virus strain ERA); remark: listed apart in the source
[11] = target: looped peptide … (rabies virus strain ERA); remark: listed apart in the source
[12] = target: looped peptide … (rabies virus strain ERA); remark: listed apart in the source
[13] = target: looped peptide … (rabies virus strain ERA); remark: listed apart in the source
[14] = target: looped peptide … (rabies virus strain ERA); remark: listed apart in the source
[15] = target: looped peptide … (rabies virus strain ERA); remark: listed apart in the source
[16] = target: looped peptide … (rabies virus strain ERA); remark: listed apart in the source
[17] = target: looped peptide … (rabies virus strain ERA); remark: listed apart in the source
[18] = target: looped peptide … (rabies virus strain ERA); remark: listed apart in the source
[19] = target: looped peptide … (rabies virus strain ERA); remark: listed apart in the source
[20] = target: looped peptide … (rabies virus strain ERA); remark: listed apart in the source
[21] = target: looped peptide … (rabies virus strain ERA); remark: listed apart in the source
[22] = target: looped peptide … (rabies virus strain ERA); remark: listed apart in the source
[23] = target: looped peptide … (rabies virus strain ERA); remark: listed apart in the source
[24] = target: looped peptide … (rabies virus strain ERA); remark: listed apart in the source
[25] = target: looped peptide … (rabies virus strain ERA); remark: listed apart in the source
[26] = target: looped peptide … (rabies virus strain ERA); remark: listed apart in the source
[27] = target: looped peptide … (rabies virus strain ERA); remark: listed apart in the source
[28] = target: looped peptide … (rabies virus strain ERA); remark: listed apart in the source
[29] = target: looped peptide … (rabies virus strain ERA); remark: listed apart in the source
[30] = target: looped peptide … (rabies virus strain ERA); remark: listed apart in the source
[31] = target: looped peptide … (rabies virus strain ERA); remark: listed apart in the source
[32] = target: looped peptide … (rabies virus strain ERA); remark: listed apart in the source
[33] = target: looped peptide … (rabies virus strain ERA); remark: listed apart in the source
[34] = target: looped peptide … (rabies virus strain ERA); remark: listed apart in the source
[35] = target: looped peptide … (rabies virus strain ERA); remark: listed apart in the source
[36] = target: looped peptide … (rabies virus strain ERA); remark: listed apart in the source
[37] = target: looped peptide … (rabies virus strain ERA); remark: listed apart in the source
[38] = target: looped peptide … (rabies virus strain ERA); remark: listed apart in the source
[39] = target: looped peptide … (rabies virus strain ERA); remark: listed apart in the source
[40] = target: looped peptide … (rabies virus strain ERA); remark: listed apart in the source
[41] = target: looped peptide … (rabies virus strain ERA); remark: listed apart in the source
[42] = target: looped peptide … (rabies virus strain ERA); remark: listed apart in the source
[43] = target: looped peptide … (rabies virus strain ERA); remark: listed apart in the source
[44] = target: looped peptide … (rabies virus strain ERA); remark: listed apart in the source
[45] = target: looped peptide … (rabies virus strain ERA); remark: listed apart in the source
[46] = target: looped peptide … (rabies virus strain ERA); remark: listed apart in the source
[47] = target: looped peptide … (rabies virus strain ERA); remark: listed apart in the source
[48] = target: looped peptide … (rabies virus strain ERA); remark: listed apart in the source
[49] = target: looped peptide … (rabies virus strain ERA); remark: listed apart in the source
[50] = target: looped peptide … (rabies virus strain ERA); remark: listed apart in the source
[51] = target: looped peptide … (rabies virus strain ERA); remark: listed apart in the source
[52] = target: looped peptide … (rabies virus strain ERA); remark: listed apart in the source
[53] = target: looped peptide … (rabies virus strain ERA); remark: listed apart in the source
[54] = target: looped peptide … (rabies virus strain ERA); remark: listed apart in the source
[55] = target: looped peptide … (rabies virus strain ERA); remark: listed apart in the source
[56] = target: looped peptide … (rabies virus strain ERA); remark: listed apart in the source
[57] = target: looped peptide … (rabies virus strain ERA); remark: listed apart in the source
[58] = target: looped peptide … (rabies virus strain ERA); remark: listed apart in the source
[59] = target: looped peptide … (rabies virus strain ERA); remark: listed apart in the source
[60] = target: looped peptide … (rabies virus strain ERA); remark: listed apart in the source
[61] = target: looped peptide … (rabies virus strain ERA); remark: listed apart in the source
[62] = target: looped peptide … (rabies virus strain ERA); remark: listed apart in the source
[63] = target: looped peptide … (rabies virus strain ERA); remark: listed apart in the source
[64] = target: looped peptide … (rabies virus strain ERA); remark: listed apart in the source
[65] = target: looped peptide … (rabies virus strain ERA); remark: listed apart in the source
[66] = target: looped peptide … (rabies virus strain ERA); remark: listed apart in the source
[67] = target: looped peptide … (rabies virus strain ERA); remark: listed apart in the source
[68] = target: looped peptide … (rabies virus strain ERA); remark: listed apart in the source
[69] = target: looped peptide … (rabies virus strain ERA); remark: listed apart in the source
[70] = target: looped peptide … (rabies virus strain ERA); remark: listed apart in the source
[71] = target: looped peptide … (rabies virus strain ERA); remark: listed apart in the source
[72] = target: looped peptide … (rabies virus strain ERA); remark: listed apart in the source
[73] = target: looped peptide … (rabies virus strain ERA); remark: listed apart in the source
[74] = target: looped peptide … (rabies virus strain ERA); remark: listed apart in the source
[75] = target: looped peptide … (rabies virus strain ERA); remark: listed apart in the source
[76] = target: looped peptide … (rabies virus strain ERA); remark: listed apart in the source
[77] = target: looped peptide … (rabies virus strain ERA); remark: listed apart in the source
[78] = target: looped peptide … (rabies virus strain ERA); remark: listed apart in the source
[79] = target: looped peptide … (rabies virus strain ERA); remark: listed apart in the source
[80] = target: looped peptide … (rabies virus strain ERA); remark: listed apart in the source
[81] = target: looped peptide … (rabies virus strain ERA); remark: listed apart in the source
[82] = target: looped peptide … (rabies virus strain ERA); remark: listed apart in the source
[83] = target: looped peptide … (rabies virus strain ERA); remark: listed apart in the source
[84] = target: looped peptide … (rabies virus strain ERA); remark: listed apart in the source
[85] = target: looped peptide … (rabies virus strain ERA); remark: listed apart in the source
[86] = target: looped peptide … (rabies virus strain ERA); remark: listed apart in the source
[87] = target: looped peptide … (rabies virus strain ERA); remark: listed apart in the source
[88] = target: looped peptide … (rabies virus strain ERA); remark: listed apart in the source
[89] = target: looped peptide … (rabies virus strain ERA); remark: listed apart in the source
[90] = target: looped peptide … (rabies virus strain ERA); remark: listed apart in the source
[91] = target: looped peptide … (rabies virus strain ERA); remark: listed apart in the source
[92] = target: looped peptide … (rabies virus strain ERA); remark: listed apart in the source
[93] = target: looped peptide … (rabies virus strain ERA); remark: listed apart in the source
[94] = target: looped peptide … (rabies virus strain ERA); remark: listed apart in the source
[95] = target: looped peptide … (rabies virus strain ERA); remark: listed apart in the source
[96] = target: looped peptide … (rabies virus strain ERA); remark: listed apart in the source
[97] = target: looped peptide … (rabies virus strain ERA); remark: listed apart in the source
[98] = target: looped peptide … (rabies virus strain ERA); remark: listed apart in the source

B1: human monoclonal antibody CRJA (antibody, V domains shown)
VH: EVQLLESGGGLVQPGGSLRLSCAASGFTFSNYAMSWVRQAPGKGLEWVSAISASGHSTYLADSVKGRFTISRDNSKNTLYLQMNSLRAEDTAVYYCAKDREVTMIVVLNGGFDYWGQGTRVTVSS
VL: EIVLTQSPATLSLSPGERATLACRASQTASRYLAWYQQKPGQAPRLLIYDTSNRATGIPARFSGSGSGTDFTLSISSLEPEDFAVYYCQQRFNWPWTFGQGTKVEFK
In the case of B1, the OD value [1] is reported as 55, the OD value [2] is reported as 96 and the OD value [3] is reported as 104. The OD value [4] was 88, the OD value [5] was 110 and the OD value [6] was 50. It also gave an OD value [7] of 113, an OD value [8] of 93 and an OD value [9] of 66. For the same binder, the OD value [10] was 110, the OD value [11] was 90 and the OD value [12] was 93. It also gave an OD value [13] of 108, an OD value [14] of 82 and an OD value [15] of 100. For the same binder, the OD value [16] was 92, the OD value [17] was 51 and the OD value [18] was 90. For the same binder, the OD value [19] was 110, the OD value [20] was 71 and the OD value [21] was 100. For the same binder, the OD value [22] was 90, the OD value [23] was 96 and the OD value [24] was 113. It also gave an OD value [25] of 113, an OD value [26] of 104 and an OD value [27] of 96. It also gave an OD value [28] of 94, an OD value [29] of 86 and an OD value [30] of 57. For the same binder, the OD value [31] was 69, the OD value [32] was 75 and the OD value [33] was 92. For the same binder, the OD value [34] was 108, the OD value [35] was 125 and the OD value [36] was 100. The OD value [37] was 93, the OD value [38] was 86 and the OD value [39] was 92. The OD value [40] was 93, the OD value [41] was 90 and the OD value [42] was 92. The OD value [43] was 96, the OD value [44] was 80 and the OD value [45] was 90. For the same binder, the OD value [46] was 41, the OD value [47] was 71 and the OD value [48] was 100. The OD value [49] was 74, the OD value [50] was 105 and the OD value [51] was 129. It also gave an OD value [52] of 88, an OD value [53] of 120 and an OD value [54] of 90. For the same binder, the OD value [55] was 59, the OD value [56] was 84 and the OD value [57] was 94. The OD value [58] was 87, the OD value [59] was 83 and the OD value [60] was 62. For the same binder, the OD value [61] was 72, the OD value [62] was 84 and the OD value [63] was 82. For the same binder, the OD value [64] was 71, the OD value [65] was 72 and the OD value [66] was 92. For the same binder, the OD value [67] was 49, the OD value [68] was 113 and the OD value [69] was 51. The OD value [70] was 90, the OD value [71] was 90 and the OD value [72] was 104. It also gave an OD value [73] of 88, an OD value [74] of 93 and an OD value [75] of 90. It also gave an OD value [76] of 78, an OD value [77] of 73 and an OD value [78] of 104. It also gave an OD value [79] of 118, an OD value [80] of 79 and an OD value [81] of 88. The OD value [82] was 43, the OD value [83] was 46 and the OD value [84] was 92. It also gave an OD value [85] of 56, an OD value [86] of 100 and an OD value [87] of 88. For the same binder, the OD value [88] was 98, the OD value [89] was 123 and the OD value [90] was 64. The OD value [91] was 112, the OD value [92] was 110 and the OD value [93] was 100. It also gave an OD value [94] of 49, an OD value [95] of 96 and an OD value [96] of 104. The OD value [97] was 98 and the OD value [98] was 45.
